Data reported in paper PMC4937376, “CpsR, a GntR family regulator, transcriptionally regulates capsular polysaccharide biosynthesis and governs bacterial virulence in Streptococcus pneumoniae”.

Biological target: 6His-CpsR (Streptococcus pneumoniae D39, UniProt A0A0H2ZMA3 1-247)
Assay: EMSA; 0.25 uM probe; EMSA: 20 ul, LightShift kit buffer (composition not given) with 50 ng/ul poly(dI-dC), 20 min room temperature, 6% gel; footprinting: 400 ng probe in 40 ul, 30 min at 25 C
Settings: protein: recombinant; tags: 6His; chain copies: 2; label: 5'-biotin (top strand); blunt

B1: WT 33-mer (dsDNA)
DNA 1: TGTCATGTTCTTATTTCATTTTACTATATTTTT
DNA 2: AAAAATATAGTAAAATGAAATAAGAACATGACA
  binding result: binds
